In patent publication US20240124519A1:

Target: non-covalent complex of the soluble extracellular domain of human neonatal Fc receptor (FcRn) with C-terminal His-Avi Tag and human beta-2-microglobulin, biotinylated (human) (UniProt P55899)
Test: FcRn affinity chromatography, Fc part after IdeS cleavage and preparative SEC

non-covalent complex of the soluble extracellular domain of human neonatal Fc receptor (FcRn) with C-terminal His-Avi Tag and human beta-2-microglobulin, biotinylated (human), sequence (P55899 other isoform, or with tags, fused parts or gaps limits assumed, chain 1 of 2): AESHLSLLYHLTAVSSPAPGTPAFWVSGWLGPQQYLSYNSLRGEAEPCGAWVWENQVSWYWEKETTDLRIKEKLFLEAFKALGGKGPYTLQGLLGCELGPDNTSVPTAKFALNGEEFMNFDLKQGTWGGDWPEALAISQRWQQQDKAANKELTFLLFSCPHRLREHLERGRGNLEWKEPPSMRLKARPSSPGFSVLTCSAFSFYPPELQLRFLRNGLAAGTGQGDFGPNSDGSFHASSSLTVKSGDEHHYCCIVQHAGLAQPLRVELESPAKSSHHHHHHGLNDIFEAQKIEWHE
non-covalent complex of the soluble extracellular domain of human neonatal Fc receptor (FcRn) with C-terminal His-Avi Tag and human beta-2-microglobulin, biotinylated (human), sequence (b2m, as listed by the source limits assumed, chain 2 of 2): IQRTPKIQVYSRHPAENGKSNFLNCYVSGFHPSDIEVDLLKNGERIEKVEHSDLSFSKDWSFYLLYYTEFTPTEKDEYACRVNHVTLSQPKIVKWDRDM

Fc part of anti-Abeta antibody (YTE mutant)
retention time: 52 min
